Experimental findings from article PMC3778244 (Genes & Development, 2013) are described below.

The target in assay [1] is T1, Ccq1 N-terminal domain (Ccq1-NTD; residues 2-439) (S. pombe, UniProt Q10432 2-439).
T1 sequence: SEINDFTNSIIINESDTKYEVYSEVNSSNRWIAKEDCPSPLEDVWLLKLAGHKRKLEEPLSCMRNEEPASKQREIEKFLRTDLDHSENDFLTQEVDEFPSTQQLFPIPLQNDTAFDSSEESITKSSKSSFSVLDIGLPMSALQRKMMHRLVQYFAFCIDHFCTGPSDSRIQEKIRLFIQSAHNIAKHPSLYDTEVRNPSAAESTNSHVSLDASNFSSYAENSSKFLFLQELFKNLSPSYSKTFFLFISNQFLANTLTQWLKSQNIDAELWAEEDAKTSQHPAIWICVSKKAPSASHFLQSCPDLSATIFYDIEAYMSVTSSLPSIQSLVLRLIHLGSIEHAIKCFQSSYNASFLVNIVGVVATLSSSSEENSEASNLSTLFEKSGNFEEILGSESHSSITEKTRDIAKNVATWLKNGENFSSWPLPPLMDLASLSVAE
The assay can be described thus: pull-down.

Assay [2] concerns the target T2, Poz1 (recombinant) (S. pombe, UniProt O13852 1-249).
T2 sequence: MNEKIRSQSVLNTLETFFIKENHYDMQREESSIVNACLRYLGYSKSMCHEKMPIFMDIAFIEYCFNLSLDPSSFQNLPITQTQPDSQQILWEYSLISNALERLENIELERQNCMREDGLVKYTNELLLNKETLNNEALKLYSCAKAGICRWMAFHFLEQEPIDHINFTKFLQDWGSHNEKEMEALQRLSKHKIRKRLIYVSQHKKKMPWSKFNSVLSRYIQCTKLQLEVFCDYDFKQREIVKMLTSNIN
As to the kind of experiment: pull-down.

B1: GST-Tpz1-CTD (Tpz1 C-terminal domain, residues 406-508) (domain or fragment)
chain: SSVISCTPPAINFTSDICNEQIELEYKRKPIPDYDFMKGLETTLQELYVEHQSKKRRLELFQLTNNHQKNSEACEMCRLGLPHGSFFELLRDWKKIEEFRNKS
On to B1, for which the binding result in assay [1] and in assay [2] was “binds” in each case.

B2: GST-Tpz1-CTD L449A (domain or fragment)
chain: SSVISCTPPAINFTSDICNEQIELEYKRKPIPDYDFMKGLETTAQELYVEHQSKKRRLELFQLTNNHQKNSEACEMCRLGLPHGSFFELLRDWKKIEEFRNKS
Regarding B2, the binding result in assay [2] is on record as “binds”.

B3: GST-Tpz1-CTD I501R (domain or fragment)
chain: SSVISCTPPAINFTSDICNEQIELEYKRKPIPDYDFMKGLETTLQELYVEHQSKKRRLELFQLTNNHQKNSEACEMCRLGLPHGSFFELLRDWKKREEFRNKS
For B3, the binding result in assay [1] is reported as “binds”.
